Measured values reported in the supplement of paper PMC12042874.
± gives the uncertainty stated by the source.

test: amyloid nucleation score (Sup35N fusion, yeast selection) (log enrichment); library NNK1; higher = more nucleation; inactive = no reads after selection
Summary of the method: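 Random libraries were run with three technical output replicates. In each, psi-negative yeast expressing Sup35N fused to peptides of 20 random codons were induced 24 hours with 100 μM copper sulfate and grown 7 days at 30°C on medium lacking adenine and uracil, and input and output plasmid inserts were Illumina-sequenced. The nucleation score is the DiMSum log enrichment of output over input reads, centred on the mode score of non-aggregating sequences, and sequences under 100 input reads were excluded.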

| Substance | amyloid nucleation score |
| --- | --- |
| SRAWWVKEFRGVKEVIQVRF | 0.488 ± 0.56 |
| SRCCGPCYTAV | -0.115 ± 0.3 |
| SRCYMDSIV | 0.101 ± 0.36 |
| SRFNPSQRMHSNSGKGGVSF | inactive |
| SRFWGER | 0.801 ± 0.62 |
| SRGLNFVIVTFYCDLLQG | -0.881 ± 1.6 |
| SRGLRNLSSMPNWAGLP | 0.707 ± 0.61 |
| SRGTGRARDAAA | -0.488 ± 1.1 |
| SRLRCMEH | 2.51 ± 0.15 |
| SRLSLT | 0.179 ± 0.82 |
| SRLVRSSLHMGAKTRVIQL | 0.881 ± 0.26 |
| SRMWR | -0.068 ± 0.45 |
| SRNAVVVVVQTYMDMTSCNT | 6.37 ± 0.068 |
| SRRSYSYFGIIICVNCSDTS | 8.583 ± 0.057 |
| SRSSCQVMVSRDAADVLHRI | 0.423 ± 0.58 |
| SRTFVGGLGLVYEIFIVMAV | -0.301 ± 0.59 |
| SRVFRLVFKPSYGSLTRRCR | -0.904 ± 1.9 |
| SRWFCYRLVFTFVGPTRHLD | 0.172 ± 0.77 |
| SRWPTHGSQIFVLTESVLTN | 0.062 ± 0.55 |
| SRWTFSNRAFYRTGAWA | 0.235 ± 0.68 |
| SRYELSIVDCLRHTTSFFVR | 0.034 ± 0.81 |
| SRYGWGTRSESRQLTSLSCT | -0.304 ± 1.3 |
| SRYIGSSPARMMASWTFQGL | 4.01 ± 0.078 |
| SRYSLTCRVLTWLPDNLVRR | 0.07 ± 0.42 |
| SSCSPHLLFGLASVGV | 0.39 ± 0.53 |
| SSCVIRKCKHERQRWMS | inactive |

| Substance | amyloid nucleation score |
| --- | --- |
| SSDEFVDGSLIWYHLFSPCR | -0.744 ± 0.41 |
| SSDGVSMLC | 0.33 ± 0.47 |
| SSESICFNIRGQDINRT | -0.446 ± 0.37 |
| SSFIPF | 0.1 ± 0.32 |
| SSGYSGSCVNINWC | 6.412 ± 0.045 |
| SSKLSYWYKMAIESSFNVLH | -0.083 ± 0.41 |
| SSKVERG | -0.139 ± 1.3 |
| SSLNLMPQVGEGRHTGV | -0.648 ± 0.46 |
| SSPIGSSSFTMGCGWREQ | 0.599 ± 0.88 |
| SSPSMSINVYRLNKS | inactive |
| SSRLKL | 1 ± 0.25 |
| SSRLVSFFGHSNTVLRMFNW | inactive |
| SSSADLAATARLFAGWEVLY | 0.045 ± 0.74 |
| SSSFRHAMRPSSISQRISPC | 0.354 ± 0.54 |
| SSSKLLR | -0.4 ± 0.7 |
| SSSKYMIFFYRAIHHHKGME | 0.31 ± 0.33 |
| SSTLLRMIEVRNGWEKGVWE | 0.083 ± 0.2 |
| SSVYVRLVMGF | 1.77 ± 0.61 |
| SSVYVSIQLGGTLPRWGGVR | 1.19 ± 0.3 |
| SSYSYSDLRTRYIRITSQLD | 0.203 ± 0.47 |
| STCHRSSSTCWKGYVRGLVV | 0.004 ± 0.18 |
| STFWENIIVFFHGPYHDMHT | -0.647 ± 0.69 |
| STKADTSRALVLCRGDC | -0.18 ± 0.59 |
| STLLMTSDSSALMLLYTSIL | -0.336 ± 0.46 |
| STLYLLHGRNSHTGRSFSRH | -1.01 ± 0.66 |
| STNVGRILMCVQLSLWKLN | 0.227 ± 0.29 |

| Substance | amyloid nucleation score |
| --- | --- |
| STRFPRLDALNGKKFYRKNT | 0.157 ± 0.66 |
| STRGHNMTEINVWMVHNILT | -0.116 ± 1.4 |
| SVAHMVDISFVVHPVMSTGN | -1.1 ± 0.82 |
| SVCKCKLNERIEKWNYRSIR | 0.227 ± 0.43 |
| SVFISNERL | inactive |
| SVGGWLSYRSDV | -0.901 ± 0.89 |
| SVGSLRRFSDFIYWNVVLNM | -0.3 ± 0.58 |
| SVGTDY | -0.465 ± 1.6 |
| SVHKWSSKTAMSLRTTYK | 0.284 ± 0.69 |
| SVISNVCSKCTVTRRDGP | 3.17 ± 0.11 |
| SVIYHRCLFLI | 6.906 ± 0.048 |
| SVKGRGRGILWMLAVSECVG | -0.762 ± 0.62 |
| SVKNYLCLMTTPFVFVLEM | 5.417 ± 0.049 |
| SVLCTLALSTCLGCLIVS | inactive |
| SVMGVSWFLFLDYGDSINFR | 0.521 ± 0.36 |
| SVMNGVGPQWLVLTYLPVSR | -0.38 ± 1.5 |
| SVNFRYPWCFTVGGMTVLLQ | 0.007 ± 0.73 |
| SVNRCFSAFLSQAIT | 0.042 ± 0.53 |
| SVRYWAYRFVHF | inactive |
| SVVRNEIYRYYKCSKTVSIW | -0.513 ± 0.33 |
| SVWGIILYYWKY | 0.388 ± 0.43 |
| SVYPLF | -0.268 ± 0.28 |
| SVYVLSRGAVSMSVWHR | 3.64 ± 0.15 |
| SWATWLDMNG | 0.964 ± 0.76 |
| SWCHFVCLYPKHVFSVVSST | 0.562 ± 1.2 |
| SWCRGLEVQWLRCIFRM | 0.274 ± 0.69 |

| Substance | amyloid nucleation score |
| --- | --- |
| SWFTVRCDDC | inactive |
| SWFYYAKC | 0.05 ± 0.76 |
| SWIEKDHFQVGARYRMSS | -0.376 ± 0.6 |
| SWLCHRTSVLVPVVSISRKL | 1.15 ± 0.7 |
| SWNNNAFAGMIPSNVVCCTY | 1.97 ± 0.26 |
| SWRLMIRYVDTPNSWNFSTM | -0.183 ± 0.67 |
| SWRNVLKSGASRNKVDRSSL | -0.22 ± 1.1 |
| SWSEVGWTHCMSWASHI | -1.14 ± 2.4 |
| SWVGRAVVEYSARARASTES | -0.327 ± 0.33 |
| SWVSAVIHRYGV | 1.31 ± 0.15 |
| SYAGYGTNK | -0.242 ± 0.62 |
| SYFKCMIILSRMLLVVLEI | -0.272 ± 0.65 |
| SYHLLMHMGIGQTLYKTRYD | 1.98 ± 0.21 |
| SYIDHYITKSDAVWRVSIEQ | -0.176 ± 0.35 |
| SYNTIIGSSCN | 0.701 ± 0.69 |
| SYPCTVHTKGWLVFTCGVCI | 0.32 ± 0.73 |
| SYQVRDVIKSF | 4.52 ± 0.1 |
| SYRHSSTSCKFGYVYRFTCL | 1.19 ± 0.41 |
| SYRRAVHGVVVQQKRDEFVL | -0.026 ± 0.36 |
| SYSDICEVNLDTHKFVLGVR | -0.992 ± 0.49 |
| SYTYCLVVG | 0.157 ± 1.4 |
| SYVMGLVYLIYTCKYWFFSE | -0.827 ± 1.7 |
| SYVRLFERFWVNFRSHMGNC | 0.014 ± 0.52 |
| TAASTHLVSACTLTKRCERL | -0.673 ± 0.92 |
| TAFFCRFPSCGGYIAYRSYV | -1 ± 1.2 |
| TAFLGTSGG | 0.448 ± 0.42 |

| Substance | amyloid nucleation score |
| --- | --- |
| TASICSYR | -0.289 ± 0.49 |
| TAVDLWYGGVGGLALNGVVS | 0.594 ± 0.62 |
| TAYAFNDCEFEPVWSRIVGN | -0.412 ± 0.48 |
| TCFEMLPLK | 0.454 ± 0.5 |
| TCFSSILKDMVWRNRRRWGY | 0.216 ± 0.84 |
| TCIDVQQYDCLVFFYFLHGF | inactive |
| TCISTCYD | -0.183 ± 0.9 |
| TCLCD | 1.52 ± 0.46 |
| TCLRACVHLVNYGVDMFSDK | 1.83 ± 0.32 |
| TCPWWTVIVFTSESMP | inactive |
| TCRNFRHG | -0.542 ± 0.57 |
| TDCHS | inactive |
| TDDATNVRKGAHS | 0.602 ± 0.6 |
| TDFMVGCVNMRRSESVWYC | 0.767 ± 0.39 |
| TDGIAVSFTNHDVWMVDAFV | 0.241 ± 1.4 |
| TDPRNNACVFYVCYYTSCWD | 0.923 ± 0.66 |
| TEDVKAVKVLGLTLGVQVIT | -0.657 ± 0.38 |
| TEGRKSSNVQ | 0.577 ± 0.47 |
| TESVRKWFKLRLWESWYNSN | 0.145 ± 0.51 |
| TFAVLRNSGFM | 0.529 ± 0.84 |
| TFFVVCKSTLILYEI | -0.186 ± 0.52 |
| TFGLRFVYMAHLVVWCADHR | 0.036 ± 0.33 |
| TFISSMPNQMIFPKGGSRGC | inactive |
| TFKKWMRIVYNLISKLKSRH | 2.98 ± 0.081 |
